Test results published in publication PMC5431903, “Genomic RNA folding mediates assembly of human parechovirus” (Nature Communications, 2017).

Molecular target: the molecule itself
Test: not stated; purified HPeV1 virions heated to 56 °C for 30 min, then 4 °C for 10 days (1x selection buffer: 10 mM Tris-HCl pH 7.7, 150 mM NaCl, 1 mM MgCl2); whole capsids removed by centrifugation; how the pentamers were shown is in Supplementary Fig. 1

B1: HPeV1 (Harris strain) capsid protein protomer of VP0, VP1 and VP3 (complex)
chain 1: METIKSIADMATGVVSSVDSTINAVNEKVESVGNEIGGNLLTKVADDASNILGPNCFATTAEPENKNVVQATTTVNTTNLTQHPSAPTMPFSPDFSNVDNFHSMAYDITTGDKNPSKLVRLETHEWTPSWARGYQITHVELPKVFWDHQDKPAYGQSRYFAAVRCGFHFQVQVNVNQGTAGSALVVYEPKPVVTYDSKLEFGAFTNLPHVLMNLAETTQADLCIPYVADTNYVKTDSSDLGQLKVYVWTPLSIPTGSANQVDVTILGSLLQLDFQNPRVFAQDVNIYDN
chain 2: NSWGSQMDLTDPLCIEDDTENCKQTMSPNELGLTSAQDDGPLGQEKPNYFLNFRSMNVDIFTVSHTKVDNLFGRAWFFMEHTFTNEGQWRVPLEFPKQGHGSLSLLFAYFTGELNIHVLFLSERGFLRVAHTYDTSNDRVNFLSSNGVITVPAGEQMTLSAPYYSNKPLRTVRDNNSLGYLMCKPFLTGTSTGKIEVYLSLRCPNFFFPLPAPKVTSSRALRGDMANLTNQ
chain 3: APNGKKKNWKKIMTMSTKYKWTRTKIDIAEGPGSMNMANVLCTTGAQSVALVGERAFYDPRTAGSKSRFDDLVKIAQLFSVMADSTTPSENHGVDAKGYFKWSATTAPQSIVHRNIVYLRLFPNLNVFVNSYSYFRGSLVLRLSVYASTFNRGRLRMGFFPNATTDSTSTLDNAIYTICDIGSDNSFEITIPYSFSTWMRKTNGHPIGLFQIEVLNRLTYNSSSPSEVYCIVQGKMGQDARFFCPTGSVVTFQ
notes: capsid protein VP0 of human parechovirus 1, Harris strain; cut product of the viral polyprotein, not cleaved into VP2 and VP4; capsid protein VP1 of human parechovirus 1, Harris strain; cut product of the viral polyprotein; capsid protein VP3 of human parechovirus 1, Harris strain; One protomer holds one copy each of VP0, VP1 and VP3; five protomers form the pentameric capsomer, and the capsid is …
stoichiometry N: 5
